Laboratory results taken from PMC4298015.

What was measured:
[1] = biological target: GST-Gli1ZF-K350A (UniProt P08151 242-424, K350A); assay: EMSA
[2] = biological target: GST-Gli1ZF-WT (UniProt P08151 242-424); assay: EMSA
Chain of GST-Gli1ZF-WT (P08151 242-424): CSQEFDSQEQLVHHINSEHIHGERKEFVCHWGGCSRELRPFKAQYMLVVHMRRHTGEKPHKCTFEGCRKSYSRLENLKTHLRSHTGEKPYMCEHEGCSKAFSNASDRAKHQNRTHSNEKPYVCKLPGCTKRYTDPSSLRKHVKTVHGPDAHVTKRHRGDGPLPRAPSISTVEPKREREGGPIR

Chain of GST-Gli1ZF-K350A (P08151 242-424 K350A): as the sequence (P08151 242-424) above, with K109A counted along it

B1: GliBS (dsDNA)
DNA 1: TTGCCTACCTGGGTGGTCTCTCCACTT
DNA 2: AAGTGGAGAGACCACCCAGGTAGGCAA
binding result [1]: no binding
binding result [2]: binds
